Drawing on publication PMC5021511 (Methods in cell biology, 2016), this text covers Kd for one protein.

This data set concerns the molecule itself. Kind of data set: FRET or BRET. (BRET reads energy transfer from a luciferase to a nearby fluorophore.)

B1: Cdc11(E294C)-capped and otherwise Cys-less septin heterooctamer, labeled with AF555-maleimide (donor) or AF647-maleimide (acceptor) (complex, S. cerevisiae)
chain 1: MSGIIDASSALRKRKHLKRGITFTVMIVGQSGSGRSTFINTLFGQQVVDTSTTILLPTDTSTEIDLQLREETVELEDDEGVKIQLNIIDTPGFGDSLDNSPSFEIISDYIRHQYDEILLEESRVRRNPRFKDGRVHAALYLINPTGHGLKEIDVEFIRQLGSLVNIIPVISKSDSLTRDELKLNKKLIMEDIDRWNLPIYNFPFDEDEISDEDYETNMYLRTLLPFAIIGSNEVYEMGGDVGTIRGRKYPWGILDVEDSSISDFVILRNALLISHLHDLKNYTHEILYERYRTCALSGESVAAESIRPNLTKLNGSSSSSTTTRRNTNPFKQSNNINNDVLNPASDMHGQSTGENNETYMTREEQIRLEEERLKAFEERVQQELLLKRQELLQREKELREIEARLEKEAKIKQEE
chain 2: MSAATATAAPVPPPVGISNLPNQRYKIVNEEGGTFTVMLAGESGLGKTTFINTLFQTVLKRADGQQHRQEPIRKTVEIDITRALLEEKHFELRVNVIDTPGFGDNVNNNKAWQPLVDFIDDQHDSYMRQEQQPYRTKKFDLRVHAVLYFIRPTGHGLKPIDIETMKRLSTRANLIPVIAKADTLTAQELQQFKSRIRQVIEAQEIRIFTPPLDADSKEDAKSGSNPDSAAVEHARQLIEAMPFAIVGSEKKFDNGQGTQVVARKYPWGLVEIENDSHSDFRKLRALLLRTYLLDLISTTQEMHYETYRRLRLEGHENTGEGNEDFTLPAIAPARKLSHNPRYKEEENALKKYFTDQVKAEEQRFRQWEQNIVNERIRLNGDLEEIQGKVKKLEEQVKSLQVKKSHLK
chain 3: MSLKEEQVSIKQDPEQEERQHDQFNDVQIKQESQDHDGVDSQYTNGTQNDDSERFEAAESDVKVEPGLGMGITSSQSEKGQVLPDQPEIKFIRRQINGYVGFANLPKQWHRRSIKNGFSFNLLVVGPDGIGKTTLMKTLFNNDDIEANLVKDYEEELANDQEEEEGQGEGHENQSQEQRHKVKIKSYESVIEENGVKLNLNVIDTEGFGDFLNNDQKSWDPIIKEIDSRFDQYLDAENKINRHSINDKRIHAVLYFIEPTGHYLKPLDLKFMQSVYEKVNLIPVIAKSDILTDEEILSFKKTIMNQLIQSNIELFKPPIYSNDDAENSHLSERLFSSLPYAVIGSNDIVENYSGNQVRGRSYPWGVIEVDNDNHSDFNLLKNLLIKQFMEELKERTSKILYENYRSSKLAKLGIKQDNSVFKEFDPISKQQEEKTLHEAKLAKLEIEMKTVFQQKVSEKEKKLQKSETELFARHKEMKEKLTKQLKALEDKKKQLELSINSASPNVNHSPVPTKKKGFLR
chain 4: MDPLSSVQPASYVGFDTITNQIEHRLLKKGFQFNIMVVGQSGLGKSTLINTLFASHLIDSATGDDISALPVTKTTEMKISTHTLVEDRVRLNINVIDTPGFGDFIDNSKAWEPIVKYIKEQHSQYLRKELTAQRERFITDTRVHAILYFLQPNGKELSRLDVEALKRLTEIANVIPVIGKSDTLTLDERTEFRELIQNEFEKYNFKIYPYDSEELTDEELELNRSVRSIIPFAVVGSENEIEINGETFRGRKTRWSAINVEDINQSDFVYLREFLIRTHLQDLIETTSYIHYEGFRARQLIALKENANSRSSAHMSSNAIQR
modifications: Alexa Fluor 555 maleimide (donor batch) or Alexa Fluor 647 maleimide (acceptor batch) on C294
Broadly, the Kd is the free concentration of one partner at which half of the binding sites on the other are occupied at equilibrium, for simple one-to-one binding. A higher Kd goes with weaker binding. B1 registered a Kd of 24.3 ± 13.7 nM.
